Several values for one entry are separate records, joined by “and”; a condition that tells them apart may be missing. Equal entries are not always repeated.
What was measured:
[1] = biological target: CD28 on Jurkat/IL2 reporter cells (human) (UniProt P10747); test: cell-based or functional assay
[2] = biological target: PD-L1 on K562/OKT3/PD-L1 artificial antigen presenting cells (UniProt Q9NZQ7); test: cell-based or functional assay
[3] = biological target: PD-1 (PDCD1) (Homo sapiens (Human)) (UniProt Q15116); test: cell-based or functional assay
Chain of PD-1 (PDCD1) (Homo sapiens (Human)) (Q15116 21-288): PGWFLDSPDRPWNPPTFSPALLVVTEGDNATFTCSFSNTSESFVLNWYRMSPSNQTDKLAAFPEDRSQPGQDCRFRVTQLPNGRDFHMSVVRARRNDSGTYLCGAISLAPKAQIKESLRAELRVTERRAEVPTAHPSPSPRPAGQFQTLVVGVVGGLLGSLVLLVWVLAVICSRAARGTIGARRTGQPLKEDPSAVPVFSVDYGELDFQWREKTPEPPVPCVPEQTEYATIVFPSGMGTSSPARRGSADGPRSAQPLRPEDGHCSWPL

[4] = biological target: human PD-L1, full length, expressed on transfected HEK293 cells (human) (UniProt Q9NZQ7); test: flow cytometry, HEK293 cells transfected with human PD-L1
Chain of human PD-L1, full length, expressed on transfected HEK293 cells (human) (Q9NZQ7 19-290): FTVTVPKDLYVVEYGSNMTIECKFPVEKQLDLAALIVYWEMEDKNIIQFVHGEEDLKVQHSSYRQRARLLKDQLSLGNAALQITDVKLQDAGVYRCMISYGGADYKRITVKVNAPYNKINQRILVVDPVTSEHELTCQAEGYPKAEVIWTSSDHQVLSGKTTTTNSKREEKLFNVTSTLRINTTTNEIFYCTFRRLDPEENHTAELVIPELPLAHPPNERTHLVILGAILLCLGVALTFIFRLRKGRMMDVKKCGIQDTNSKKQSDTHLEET

Chain of PD-L1 on K562/OKT3/PD-L1 artificial antigen presenting cells (Q9NZQ7 19-290): as above

CD80 E35D/M47L/A71G/L85M/F92Y IgV-Fc (inert) (Fc fusion)
Fold Increase over WT CD80-IgV-Fc (RLU, Jurkat/IL2 + K562/OKT3/PD-L1 reporter assay, 50 nM) [1]: 6.4 fold
Relative Luciferase Units (RLU), Jurkat/IL2 + K562/OKT3/PD-L1 reporter assay, CD80-Fc Conc 50 nM [1]: 1320 RLU
Fold Increase over WT CD80-IgV-Fc (RLU, Jurkat/IL2 + K562/OKT3/PD-L1 reporter assay, 50 nM) [2]: 6.4 fold
Relative Luciferase Units (RLU), Jurkat/IL2 + K562/OKT3/PD-L1 reporter assay, CD80-Fc Conc 50 nM [2]: 1320 RLU

CD80 E35D/T41S/M43I/M47V/A71G IgV-Fc (inert) (Fc fusion)
Fold Increase over WT CD80-IgV-Fc (RLU, Jurkat/IL2 + K562/OKT3/PD-L1 reporter assay, 50 nM) [1]: 6.2 fold
Relative Luciferase Units (RLU), Jurkat/IL2 + K562/OKT3/PD-L1 reporter assay, CD80-Fc Conc 50 nM [1]: 1270 RLU
Fold Increase over WT CD80-IgV-Fc (RLU, Jurkat/IL2 + K562/OKT3/PD-L1 reporter assay, 50 nM) [2]: 6.2 fold
Relative Luciferase Units (RLU), Jurkat/IL2 + K562/OKT3/PD-L1 reporter assay, CD80-Fc Conc 50 nM [2]: 1270 RLU

CD80 E35D/D46E/M47V/A71D IgV-Fc (inert) (Fc fusion)
Fold Increase over WT CD80-IgV-Fc (RLU, Jurkat/IL2 + K562/OKT3/PD-L1 reporter assay, 50 nM) [1]: 3.3 fold
Relative Luciferase Units (RLU), Jurkat/IL2 + K562/OKT3/PD-L1 reporter assay, CD80-Fc Conc 50 nM [1]: 683 RLU
Fold Increase over WT CD80-IgV-Fc (RLU, Jurkat/IL2 + K562/OKT3/PD-L1 reporter assay, 50 nM) [2]: 3.3 fold
Relative Luciferase Units (RLU), Jurkat/IL2 + K562/OKT3/PD-L1 reporter assay, CD80-Fc Conc 50 nM [2]: 683 RLU

CD80 E35D/T41S/M47V/A71G/K89N IgV-Fc (inert) (Fc fusion)
Fold Increase over WT CD80-IgV-Fc (RLU, Jurkat/IL2 + K562/OKT3/PD-L1 reporter assay, 50 nM) [1]: 5 fold
Relative Luciferase Units (RLU), Jurkat/IL2 + K562/OKT3/PD-L1 reporter assay, CD80-Fc Conc 50 nM [1]: 1020 RLU
Fold Increase over WT CD80-IgV-Fc (RLU, Jurkat/IL2 + K562/OKT3/PD-L1 reporter assay, 50 nM) [2]: 5 fold
Relative Luciferase Units (RLU), Jurkat/IL2 + K562/OKT3/PD-L1 reporter assay, CD80-Fc Conc 50 nM [2]: 1020 RLU

PD-L2 H15Q/C23S/I86T IgV-Fc (from UniProt Q9BQ51 20-121) (Fc fusion)
IFN gamma levels pg/mL (MLR) [3]: 1850 pg/mL

PD-L2 H15Q/S67L/R76G/I85F IgV-Fc (from UniProt Q9BQ51 20-121) (Fc fusion)
IFN gamma levels pg/mL (MLR) [3]: 1320 pg/mL

PD-L2 H15Q/R76G/I85F IgV-Fc (first entry) (from UniProt Q9BQ51 20-121) (Fc fusion)
IFN gamma levels pg/mL (MLR) [3]: 1730 pg/mL

PD-L2 S67L/I85F IgV-Fc (from UniProt Q9BQ51 20-121) (Fc fusion)
IFN gamma levels pg/mL (MLR) [3]: 1280 pg/mL

CD80 E35D/M47V/N48T/L85Q IgV-Fc (inert) (Fc fusion)
Fold Increase over WT CD80-IgV-Fc (RLU, Jurkat/IL2 + K562/OKT3/PD-L1 reporter assay, 50 nM) [1]: 4.4 fold
Relative Luciferase Units (RLU), Jurkat/IL2 + K562/OKT3/PD-L1 reporter assay, CD80-Fc Conc 50 nM [1]: 897 RLU
Fold Increase over WT CD80-IgV-Fc (RLU, Jurkat/IL2 + K562/OKT3/PD-L1 reporter assay, 50 nM) [2]: 4.4 fold
Relative Luciferase Units (RLU), Jurkat/IL2 + K562/OKT3/PD-L1 reporter assay, CD80-Fc Conc 50 nM [2]: 897 RLU

PD-L2 I13V/S67L/Q82R/V89D IgV-Fc (from UniProt Q9BQ51 20-121) (Fc fusion)
IFN gamma levels pg/mL (MLR) [3]: 1370 pg/mL

PD-L2 I12V/I13V/H15Q/T47A/Q82R/V89D IgV-Fc (from UniProt Q9BQ51 20-121) (Fc fusion)
IFN gamma levels pg/mL (MLR) [3]: 1530 pg/mL

CD80 E35D/D46E/M47V/A71D/D90G IgV-Fc (inert) (Fc fusion)
Fold Increase over WT CD80-IgV-Fc (RLU, Jurkat/IL2 + K562/OKT3/PD-L1 reporter assay, 50 nM) [1]: 5.1 fold
Relative Luciferase Units (RLU), Jurkat/IL2 + K562/OKT3/PD-L1 reporter assay, CD80-Fc Conc 50 nM [1]: 1040 RLU
Fold Increase over WT CD80-IgV-Fc (RLU, Jurkat/IL2 + K562/OKT3/PD-L1 reporter assay, 50 nM) [2]: 5.1 fold
Relative Luciferase Units (RLU), Jurkat/IL2 + K562/OKT3/PD-L1 reporter assay, CD80-Fc Conc 50 nM [2]: 1040 RLU

PD-L2 S39I/V89D IgV-Fc (from UniProt Q9BQ51 20-121) (Fc fusion)
IFN gamma levels pg/mL (MLR) [3]: 1310 pg/mL

CD80 Q27H/E35D/M47I/L85Q/D90G IgV-Fc (inert) (Fc fusion)
Fold Increase over WT CD80-IgV-Fc (RLU, Jurkat/IL2 + K562/OKT3/PD-L1 reporter assay, 50 nM) [1]: 6.4 fold
Relative Luciferase Units (RLU), Jurkat/IL2 + K562/OKT3/PD-L1 reporter assay, CD80-Fc Conc 50 nM [1]: 1310 RLU
Fold Increase over WT CD80-IgV-Fc (RLU, Jurkat/IL2 + K562/OKT3/PD-L1 reporter assay, 50 nM) [2]: 6.4 fold
Relative Luciferase Units (RLU), Jurkat/IL2 + K562/OKT3/PD-L1 reporter assay, CD80-Fc Conc 50 nM [2]: 1310 RLU

PD-L2 I13V/H15Q/I36V/T47A/S67L/V89D IgV-Fc (from UniProt Q9BQ51 20-121) (Fc fusion)
IFN gamma levels pg/mL (MLR) [3]: 1360 pg/mL

PD-L2 H15Q/L33H/S67L/R76G/Q82R/V89D IgV-Fc (from UniProt Q9BQ51 20-121) (Fc fusion)
IFN gamma levels pg/mL (MLR) [3]: 1500 pg/mL

PD-L2 I13V/H15Q/R76G/I85F IgV-Fc (from UniProt Q9BQ51 20-121) (Fc fusion)
IFN gamma levels pg/mL (MLR) [3]: 1530 pg/mL

PD-L2 H15Q/Q72H/V89D IgV-Fc (from UniProt Q9BQ51 20-121) (Fc fusion)
IFN gamma levels pg/mL (MLR) [3]: 1270 pg/mL

variant CD80 IgV-Fc E35D/T57A/A71D/L85Q (from UniProt P33681 35-141) (Fc fusion)
MFI at 22.2 nM [4]: 1760 MFI

PD-L2 H15Q/S39I/I86T IgV-Fc (from UniProt Q9BQ51 20-121) (Fc fusion)
IFN gamma levels pg/mL (MLR) [3]: 1420 pg/mL

variant CD80 IgV-Fc V20I/A71D (from UniProt P33681 35-141) (Fc fusion)
MFI at 22.2 nM [4]: 3550 MFI

PD-L2 H15Q/K65R IgV-Fc (from UniProt Q9BQ51 20-121) (Fc fusion)
IFN gamma levels pg/mL (MLR) [3]: 1510 pg/mL

PD-L2 H15Q/N32D/S67L/V89D IgV-Fc (from UniProt Q9BQ51 20-121) (Fc fusion)
IFN gamma levels pg/mL (MLR) [3]: 1290 pg/mL

PD-L2 I13V/H15Q/T47A/Q82R/V89D IgV-Fc (from UniProt Q9BQ51 20-121) (Fc fusion)
IFN gamma levels pg/mL (MLR) [3]: 1450 pg/mL and 1740 pg/mL

variant CD80 IgV-Fc L70Q/A71D (from UniProt P33681 35-141) (Fc fusion)
MFI at 22.2 nM [4]: 1690 MFI

CD80 E35D/Y53H/A71G/D90G/L97R IgV-Fc (inert) (Fc fusion)
Fold Increase over WT CD80-IgV-Fc (RLU, Jurkat/IL2 + K562/OKT3/PD-L1 reporter assay, 50 nM) [1]: 8.4 fold
Relative Luciferase Units (RLU), Jurkat/IL2 + K562/OKT3/PD-L1 reporter assay, CD80-Fc Conc 50 nM [1]: 1720 RLU
Fold Increase over WT CD80-IgV-Fc (RLU, Jurkat/IL2 + K562/OKT3/PD-L1 reporter assay, 50 nM) [2]: 8.4 fold
Relative Luciferase Units (RLU), Jurkat/IL2 + K562/OKT3/PD-L1 reporter assay, CD80-Fc Conc 50 nM [2]: 1720 RLU

PD-L2 H15Q/V89D IgV-Fc (from UniProt Q9BQ51 20-121) (Fc fusion)
IFN gamma levels pg/mL (MLR) [3]: 1500 pg/mL
